Results published in paper PMC10715591, “EspB and HtpG interact with the type III-A CRISPR/Cas system of Mycobacterium tuberculosis” (Frontiers in Molecular Biosciences, 2023).

Target: T1, ESX-1 secretion-associated protein EspB (Mycobacterium tuberculosis H37Rv, UniProt P9WJD9 1-460)
T1 construct: also called Esx-1 secreted protein B
Test: SPR; Biacore 8K, 25°C; EspB covalently immobilised on a CM5 chip; analytes injected at 25-3,200 nM, 30 uL/min for 2 min; global fit to a 1:1 mass transport model
Settings: both partners purified

T1 sequence (P9WJD9 whole entry): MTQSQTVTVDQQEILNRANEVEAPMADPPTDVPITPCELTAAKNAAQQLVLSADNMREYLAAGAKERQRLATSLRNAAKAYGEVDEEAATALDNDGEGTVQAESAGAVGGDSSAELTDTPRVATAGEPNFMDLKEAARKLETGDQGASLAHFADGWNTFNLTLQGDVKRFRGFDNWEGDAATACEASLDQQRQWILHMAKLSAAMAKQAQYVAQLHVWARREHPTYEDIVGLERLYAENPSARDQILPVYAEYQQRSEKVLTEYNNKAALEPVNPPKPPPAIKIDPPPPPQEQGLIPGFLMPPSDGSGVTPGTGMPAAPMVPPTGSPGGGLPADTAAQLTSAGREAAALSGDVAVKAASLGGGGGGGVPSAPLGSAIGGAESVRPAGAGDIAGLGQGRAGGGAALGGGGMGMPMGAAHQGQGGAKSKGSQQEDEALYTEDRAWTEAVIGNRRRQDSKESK

B1: MtbCsm2 (natural protein)
chain: MSVIQDDYVKQAEVIRGLPKKKNGFELTTTQLRVLLSLTAQLFDEAQQSANPTLPRQLKEKVQYLRVRFVYQSGREDAVKTFVRNAKLLEALEGIGDSRDGLLRFCRYMEALAAYKKYLDPKDK
  Kd: 125 pM
  koff: 8.3e-07 s⁻¹
  kon: 6660 M⁻¹ s⁻¹

B2: MtbCsm6 (natural protein)
chain: MILFSPIGTADPITALGDGPMLHIVRHYRPIVVVLFLSAEIAAFENADRRYSAAITRLAPETDVRIVTYTNPSVHRFDLFVPVFRNHLVELSAEFPDRTILLNTSSGTPAMQAALVAINVFGIPRTTAVQVSTPARALSKPGDRESPDAYDLELMWDANDDNQPGAPNRCFEATSAALGALLERANLKQLIVSYDYSAAVTIAADSRLPDQVSNLIRGAMHRSRLEHLVAPKFFKDTAFTYDPANKVAEYISALALLAKREQWAEFARSATPAITIVLRAAVAKHLPEDRYLDDMGRVDRRKLEREPEIRCALKHPPKSPNAEWYLYTKDWLALLRQFAPDRVGALEVLGRFESRVRNTAAHEIVSISEDRITKDGGLLPEQLLKILARETGADLTLYDRLNDEIIRQIDMAPLG
  Kd: 31.6 pM
  koff: 5.83e-07 s⁻¹
  kon: 18400 M⁻¹ s⁻¹

B3: MtbCsm3 (natural protein)
chain: MTTSYAKIEITGTLTVLTGLQIGAGDGFSAIGAVDKPVVRDPLSRLPMIPGTSLKGKVRTLLSRQYGADTETFYRKPNEDHAHIRRLFGDTEEYMTGRLVFRDTKLTNKDDLEARGAKTLTEVKFENAINRVTAKANLRQMERVIPGSEFAFSLVYEVSFGTPGEEQKASLPSSDEIIEDFNAIARGLKLLELDYLGGSGTRGYGQVKFSNLKARAAVGALDGSLLEKLNHELAAV
  Kd: 1900 pM
  koff: 0.000462 s⁻¹
  kon: 243000 M⁻¹ s⁻¹
